Data on 1 sequence can be found in patent US5972351A, “Plasmodium falciparum MHC class I-restricted CTL epitopes derived from pre-erythrocytic stage antigens” (Isis Innovation Limited, priority 1992, dated 1999).

One test concerns the target T1, HLA-B53 (Homo sapiens, UniProt P01889, A329T/A93T/A95T/C349S/D201E/D98Y/E176V/E187L/E204Q/E69T/G107R/I218V/K202T/L105A/L119I/N104I/Q94N/R106L/R155S/R180L/S101N/S121R/S35A/S48A/T118I/V127L/V306I/V36M/Y140S/Y91F).
T1 construct: by transfection with a genomic clone of HLA-B53 using hygromycin selection; expressed in transfected cells; host or cells: T2-B53 (T2 cells transfected with a genomic clone of HLA-B53); lysates of 35S-methionine-labelled cells
Put plainly: HLA assembly assay (peptide binding to HLA-B53). The note with it: lysates of T2-B53 cells; all peptides initially tested at 4 μM.

The test system of the next test is B53 matched target cells. Briefly: CTL assay with HIV-2 gag restimulated CTL. Format: cell-based, human. Conditions: CTL from one HLA-B53 positive HIV-2 infected Gambian.

Method for HLA-B53: Briefly, the mutant cell line T2-B53 was derived from T2 cells of HLA type, HLA-A2, -B51, by transfection with a genomic clone of HLA-B53 using hygromycin selection. […] Peptide concentrations were determined with a Micro BCA colourimetric assay (Pierce). Peptides were added to lysates of ^35 S-methionine-labelled cells and incubated overnight at 4° C.^36. Stable assembled class I molecules were then precipitated with monoclonal antibodies W6/32^34 (reactive with all assembled class I molecules) or MHM5^41 (reactive with assembled HLA-B but not HLA-A molecules).

For the sequence ALSEGCTPYDINQMLNNCVGD [P1], the “binding to HLA-B53 in the HLA assembly assay” value in the test with HLA-B53 is “positive result”. Further, the “recognition of peptide-pulsed targets by HIV 2-gag restimulated CTL” value in the test with B53 matched target cells is given as “recognised”.
